Holding throughout (details): protein: recombinant; tags: SBP tag (N-terminal); GST removed by PreScission
The target of data set [1] is T1, MSI1 (Musashi1) (UniProt Q61474 1-362). Kind of data set: EMSA; mean of 2 gel shifts; EMSA buffer not given; RBNS: 25 mM Tris pH 7.5, 150 mM KCl, 3 mM MgCl2, 0.01% Tween, 1 mg/ml BSA, 1 mM DTT, 30 ug/ml poly I/C, room temperature. Background: In EMSA bound probe runs differently from free probe, usually more slowly.
Data set [2] addresses T1, MSI1 (Musashi1). Kind of data set: EMSA; EMSA buffer not given; RBNS: 25 mM Tris pH 7.5, 150 mM KCl, 3 mM MgCl2, 0.01% Tween, 1 mg/ml BSA, 1 mM DTT, 30 ug/ml poly I/C, room temperature.
Data set [3] deals with T1, MSI1 (Musashi1). Kind of data set: EMSA; no binding detected, Kd cannot be estimated; EMSA buffer not given; RBNS: 25 mM Tris pH 7.5, 150 mM KCl, 3 mM MgCl2, 0.01% Tween, 1 mg/ml BSA, 1 mM DTT, 30 ug/ml poly I/C, room temperature.

The text below walks through data of publication PMC4381951, “Musashi proteins are post-transcriptional regulators of the epithelial-luminal cell state”.

T1 sequence (Q61474 whole entry): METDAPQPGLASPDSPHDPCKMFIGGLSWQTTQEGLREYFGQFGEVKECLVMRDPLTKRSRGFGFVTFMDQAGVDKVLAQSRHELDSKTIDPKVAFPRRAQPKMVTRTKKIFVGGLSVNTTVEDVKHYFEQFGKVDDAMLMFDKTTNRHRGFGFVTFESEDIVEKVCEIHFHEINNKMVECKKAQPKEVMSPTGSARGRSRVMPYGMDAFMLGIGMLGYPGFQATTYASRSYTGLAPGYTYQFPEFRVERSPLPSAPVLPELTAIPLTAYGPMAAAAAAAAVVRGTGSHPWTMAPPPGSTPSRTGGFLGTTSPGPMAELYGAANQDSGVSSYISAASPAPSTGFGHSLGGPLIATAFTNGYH

By Kd is commonly meant the concentration at which binding is half-saturated. Turning to UCAAAGUAGAAUUUUUGUAUAGUUAUGUAAAUAAU (ssRNA) [Jag1 3' UTR region 2], the Kd with MSI1 (Musashi1) [1] came out at 9 nM.

Turning to UCAAAGUCCAAUUUUUGUAUCCUUAUGUAAAUAAU (ssRNA) [Jag1 3' UTR region 2 mutant], in the data set with MSI1 (Musashi1) [2], the Kd stood at 649 nM.

Take UGUCCAGUUCCAUCACUGUUUCCAU (ssRNA) [Jag1 3' UTR region 1 mutant]: the binding result in the data set with MSI1 (Musashi1) [3] was “no binding”.

As to UGUCCAGUUAGAUCACUGUUUAGAU (ssRNA) [Jag1 3' UTR region 1], the Kd in the data set with MSI1 (Musashi1) [1] was 15 nM.
